Measurements as given in patent US20190219601A1 (RAMBAM MED TECH, published 2019).
Blank lines part the entries; values can stand above or below the molecule they belong to.

Tests used:
[1] = molecular target: lipidated recombinant human tissue factor (TF) (UniProt P13726); experiment: cell-based or functional assay
Target sequence in this assay (P13726 33-295 limits assumed): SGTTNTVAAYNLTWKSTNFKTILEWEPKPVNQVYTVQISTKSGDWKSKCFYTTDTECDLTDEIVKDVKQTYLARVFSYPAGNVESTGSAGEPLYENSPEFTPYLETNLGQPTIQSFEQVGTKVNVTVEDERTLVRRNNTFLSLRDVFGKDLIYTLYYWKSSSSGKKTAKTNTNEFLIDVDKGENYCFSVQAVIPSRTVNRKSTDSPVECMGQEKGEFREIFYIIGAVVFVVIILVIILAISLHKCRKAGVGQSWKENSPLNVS

[2] = molecular target: lipidated recombinant human tissue factor (TF) (UniProt P13726)
Target sequence in this assay (P13726 33-295): as the sequence (P13726 33-295 limits assumed) above

[3] = molecular target: lipidated recombinant human tissue factor (TF) (human, UniProt P13726 33-295, limits assumed); experiment: cell-based or functional assay

Molecule: enzymatically inactive heparanase (double mutant), mutated at Glu225 and Glu343 (from UniProt Q9Y251 36-543) (enzyme)
- factor Xa generation with conditioned medium of HEK-293 cells (chromogenic substrate; TF, factor VIIa, factor X) [1]: 2 fold

Molecule: recombinant active heparanase GS3 (single chain GS3 active heparanase gene construct comprising the 8 and 50 kDa heparanase subunits)
- factor Xa level (chromogenic substrate; purified TF, factor VIIa, factor X) [2]: Addition of heparanase induced 2 folds increase in Xa level
- thrombin generation (chromogenic substrate; TF, factor VIIa, factor X, prothrombin) [2]: Note a 3-fold increase in coagulation activity in the presence of heparanase.

More lines, now with the values ahead:

- factor Xa generation with conditioned medium of HEK-293 cells (chromogenic substrate; TF, factor VIIa, factor X) [1]: 2 fold
Molecule: full-length human heparanase (65 kDa) (from UniProt Q9Y251 36-543) (enzyme)

- factor Xa generation at reduced TF levels (absorbance at 405 nm) [3]: 3 fold
- factor Xa generation with conditioned medium of HEK-293 cells (chromogenic substrate; TF, factor VIIa, factor X) [3]: 2 fold
B1: recombinant active heparanase GS3 (single chain GS3 active heparanase gene construct comprising the 8 and 50 kDa heparanase subunits) (enzyme)
chain: QDVVDLDFFTQEPLHLVSPSFLSVTIDANLATDPRFLILLGSPKLRTLARGLSPAYLRFGGTKTDFLIFDPKKESTFEERSYWQSQVNQDICKYGSIPPDVEEKLRLEWPYQEQLLLREHYQKKFKNSTYSRSSVDVLYTFANCSGLDLIFGLNALLRTADLQWNSSNAQLLLDYCSSKGYNISWELGNEPNSFLKKADIFINGSQLGEDFIQLHKLLRKSTFKNAKLYGPDVGQPRRKTAKMLKSFLKAGGEVIDSVTWHHYYLNGRTATKEDFLNPDVLDIFISSVQKVFQVVESTRPGKKVWLGETSSAYGGGAPLLSDTFAAGFMWLDKLGLSARMGIEVVMRQVFFGAGNYHLVDENFDPLPDYWLSLLFKKLVGTKVLMASVQGSKRRKLRVYLHCTNTDNPRYKEGDLTLYAINLHNVTKYLRLPYPFSNKQVDKYLLRPLGPHGLLSKSVQLNGLTLKMVDDQTLPPLMEKPLRPGSSLGLPAFSYSFFVIRNAKVAACI
